In article PMC9942873 (Immunity, 2023):
Numbering of substitutions follows the chain as printed.

B1: RUPA-65 (antibody, V domains shown)
VH: QVQLVQSGAEVKKPGASVKVSCKASGYTFLYHDIIWMRQATGQGPEWMGWINPNTGNTGHAQKFQGRVTLTRNMSSGTAYMELRSLRSEDTAVYYCARGVGTYHGSGGWFDPWGQGTLVTVSS
VL: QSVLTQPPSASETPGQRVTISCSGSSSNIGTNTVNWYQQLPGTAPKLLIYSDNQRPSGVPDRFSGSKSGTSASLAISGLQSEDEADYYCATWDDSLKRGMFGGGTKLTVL
notes: human IgG1; source: recombinant human IgG1, 293T (Protein A purified) or GenScript
B2: RUPA-68 (antibody, V domains shown)
VH: QVQLVQSGAELKKPGASVKVSCKASGYTFTSHDITWVRQAAGQGLEWMGWMNPNTGDKGYAQKFQGRVTMTRNMSTRTAYMEVNSLTSEDTAVYYCARGVGTYHGAGGWFDPWGQGTLVTVSS
VL: QSVVTQPPSVSETPGQRVTISCSGSSSNIGSNIVSWYQQLPGTAPKLLIYSDNQRPSGVPDRFSASKSGTSASLAISGLQSEDEADYYCATWDDSLKRGVFGGGTKLTVL
notes: as for B1
B3: RUPA-81 (antibody, V domains shown)
VH: EVQLVATGGGLIQPGGSLRLSCTASGFNVSRMYMSWVRQAPGKGLEWVSVIYSDSSGGSTYYTDSLKGRFIISRDNSQNTLYLQMNSLRVDDTAIYYCARDVRGWGYLDFWGQGTLVTVSS
VL: EIVLTQSPGTLSLSPGERAALSCRASQGVSSSFFAWYQQKPGQAPRLLIYGASSRATGIPDRFSGSGSGTDFTLTISRLEPEDFATYYCQQYGYSPWTFGQGTKVEIK
notes: as for B1
B4: RUPA-63 (antibody, V domains shown)
VH: QVQLVQSGAEVKKTGASVKVSCKASGYTFTSHDIIWVRQAAGQGLEWMGWMNPNTGKKGYAQRFQGRITLTRNMSTGTAYMELGSLRSDDSAIYYCARGVGTYYGSEGWLDPWGQGTLVTVSS
VL: QSVLTQPPSASETPGQRVTISCSGSSSNVGSNTVNWYQQLPGTAPKLLMYNTNQRPSGVPDRFSGSKSGTSASLAISGLRSEDEADYYCAAWDDSLKRGVFGGGTRLTVL
notes: as for B1
B5: RUPA-74 (antibody, V domains shown)
VH: QVQLVQSGAEVKKPGASVKVSCKASGYNFLYHDINWVRQAPGQGLEWMGWMNPNTGNRGYAQQFQDRVSLTRDMSQGTAYMELRNLRSDDTAVYYCARGVGSLYGSGGWIDPWGQGTLVTVSS
VL: QSVLTQPPSASETPGQRVTISCSGSSSNIGSNTVNWYQQVPGTAPKLLMYNDNHRPSGVSDRFSGSKSGTSASLAISGLQSADEADYYCETWDDSLKRRVFGGGTKLTVL
notes: as for B1
B6: RUPA-83 (antibody, V domains shown)
VH: QVQLVQSGAEVKKPGASVKVSCKASGYIFTDYGITWVRQAPGQGLEWLGWISGYSYNTNYALKFQGRVTMTTDTSTSVTYMELRNLRSDDTAVYYCARDSRSSQLLQKFDLWGQGTLVTVSS
VL: DIQLTQSPSSLSASVGDRVTITCRASQTTRNFLNWYQQKPGKAPELLIYAASTLQSGVPSRFSGSGSGTDFTLTIKNLQPEDFASYYCQQSFSSPTFGQGTKVEIK
notes: as for B1
B7: RUPA-150 (antibody, V domains shown)
VH: QVQLQQWGAGLLKPSETLSLTCLVNGGSFSDYYWSWIRQPPGRGLEWIGDVNHSGTTNHRPSLQSRVTLSLDMSKNQFSLKLTSVTAADTAVYFCARRSSGYYRGSRYTGWFDPWGQGTLVTVSS
VL: EIVMTQSPATLSVSPGERATLSCRASQSVSSNLAWYQQKPGQTPRLLIYGSSTRATGIPARFSGSGSGTEFALTISSLQSEDFAVYYCQQYNNWPPPWTFGQGTKVEIK
notes: as for B1
B8: RUPA-153 (antibody, V domains shown)
VH: QVQLQESGPGLVKPSQTLSLTCTVSGSSVSSGGYYWSWIRQHPGKGLEWIGYLYYSGNTGNTFYNPSLKSRVTISADPSKNQFSLELSSVTAADTAMYYCARAVGVGRYFGYFPSWGLGTLVTVSS
VL: B7 VL
notes: as for B1
B9: RUPA-161 (antibody, V domains shown)
VH: B1 VH with H60L, T69S, T91R, V93I
VL: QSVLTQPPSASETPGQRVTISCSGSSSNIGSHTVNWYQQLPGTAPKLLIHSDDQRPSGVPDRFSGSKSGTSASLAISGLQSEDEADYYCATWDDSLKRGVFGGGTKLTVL
notes: as for B1
B10: RUPA-149 (antibody, V domains shown)
VH: EVQLVESGGGVVQPGGSLRLSCAASGFTFSNFGMHWVRQAPGKGLEWVAKISYDGSNKYYADFVKGRFTISRDKATNTVHLQMNSLSAEDRGIYYCAKDKVFGVVANHHQYGLDVWGQGTTVTVSS
VL: DIQMTQSPASLSASVGDRVTITCRASQNIHLYLHWYQQKPGKAPELLIFTTNTLHRGVPSRFRGSGSGTEFALTISDLQPEDFATYYCQQSYTTPHFTFGQGTKLEIK
notes: as for B1
B11: RUPA-143 (antibody, V domains shown)
VH: QVQLVQSGAEVKKPGASVKVSCKASASTIANFAVSWVRQAPGQGLEWMGWISVYNVKTGDVKYAPKFQGRVTLTIDTATSTASMELRSLRFDDTAVYYCARANWYDNVWQEYFYGMDVWGQGTTVTVSS
VL: DIQMTQSPLTLSASVGDRVTITCRASQSVSRFLAWYQQKPGKAPKLLMYKVSNLESGVPSRFSGSGFGTQFTLTISSLQPDDFATYYCQHYDAYPWTFGQGTKVEIK
notes: as for B1
B12: RUPA-105 (antibody, V domains shown)
VH: QVQLVQSGAEVKKPGASVKVSCTASGYNFLTHDISWVRQATGQGLEWMGWMNPNTGKKGYVQKFQGRVTMDRDMSKSTGYMELRSLTSEDTAVYYCVRGVGSYYGSGGWLDPWGQGTLVIVSS
VL: QSVLTQPPSASETPGQKVTISCSGSSSNIGSDTVSWYVQVPGTAPKLLIYNDNQRPSGVPDRFSGSKSGTSASLAISGLQSEDEADYYCATWDASLKRRVFGGGTTLTVL
notes: as for B1
B13: RUPA-147 (antibody, V domains shown)
VH: B12 VH with G79A, L110F, I120T
VL: B12 VL with V40L, G58R
notes: as for B1
B14: RUPA-148 (antibody, V domains shown)
VH: B12 VH with G79A, L110F, I120T
VL: B12 VL with V40L, S57P
notes: as for B1
B15: RUPA-111 (antibody, V domains shown)
VH: EVQLVESGGGLVQPGGSLRLSCVVSGFTFSRYSMYWVRQAPGKGPEWVSYIDSTGTTIYYADSVKGRFTISRDNAKSSLSLQMSSLRDDDRGVYYCARDGRKDSGSFLDHWGQGTLVIVSS
VL: DIQMTQSPSTLSASVGDRVTITCRASQSISEWLAWYQQKPGKAPRLLIYQASSLQSGVPSRFSGSGSGTEFTLTISSLQSDDFATYYCQQFDTYWTFGQGTKVEVR
notes: as for B1
B16: RUPA-113 (antibody, V domains shown)
VH: QVQLVQSGAELKKPGASVKVSCKASGYTFTSHDITWVRQAPGQGLEWMGWMNPNTGDRGYARNFQGRLTLTRDMSISTAFMVLSSLRPEDTAVYYCTRGVGTYHGAGGWFDPWGQGTLVSVSS
VL: B2 VL with V4L, V10A, S51N, D52N, A65G, K67Q, K97E
notes: as for B1
B17: RUPA-151 (antibody, V domains shown)
VH: B4 VH with M51L, A61V, Q62E, R63K, I68V, T69M, G84S, Y104H
VL: B4 VL with R17G, T33A, T43R, E82A, R106K
notes: as for B1
B18: RUPA-144 (antibody, V domains shown)
VH: B4 VH with A61V, R63K, I68V, T69M, G84S, I93V
VL: B4 VL with E82D, A91T, R106K
notes: as for B1
B19: RUPA-108 (antibody, V domains shown)
VH: EVVLVESGGGLIQPGGSLRLSCAASGFTVSSSYMSWVRQAPGKGLEWVSVIYSGAGGGSIYYADSVKGRFTISRDNLKNTLYLQMNSLRVEDAAVYYCVRDSRGWGYFDDWGQGTLVTVSS
VL: EIILTQSPGTLSLSPGERATLSCRASQSIRTNYLAWYQRKPGQTPRLLIYGASSRATGIPDRFSGSGSGTDFTLTISRLEPEDFAEYFCQQYQNSPWTFGQGTIVEIK
notes: as for B1

Target: T1, recombinant full-length Pfs48/45 (Plasmodium falciparum 3D7, UniProt Q8I6T1)
T1 sequence (Q8I6T1 28-428): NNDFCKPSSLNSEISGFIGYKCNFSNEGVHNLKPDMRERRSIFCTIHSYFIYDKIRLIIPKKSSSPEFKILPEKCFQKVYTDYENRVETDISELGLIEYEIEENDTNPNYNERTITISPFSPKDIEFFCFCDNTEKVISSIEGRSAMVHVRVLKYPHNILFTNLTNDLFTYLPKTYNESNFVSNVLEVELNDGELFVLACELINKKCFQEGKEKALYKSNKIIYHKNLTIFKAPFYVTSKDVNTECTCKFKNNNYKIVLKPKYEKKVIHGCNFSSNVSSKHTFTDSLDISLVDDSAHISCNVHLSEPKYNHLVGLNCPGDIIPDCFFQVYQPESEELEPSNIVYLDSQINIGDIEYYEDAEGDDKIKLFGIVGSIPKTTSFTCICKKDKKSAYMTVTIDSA
Experiment: ELISA
Settings: both partners purified

| Binder | binding result |
| --- | --- |
| B1 | binds |
| B2 | binds |
| B3 | binds |
| B4 | binds |
| B5 | binds |
| B6 | binds |

Target: T2, Pfs48/45 D1-2 (Plasmodium falciparum 3D7, UniProt Q8I6T1)
T2 sequence (Q8I6T1 28-289): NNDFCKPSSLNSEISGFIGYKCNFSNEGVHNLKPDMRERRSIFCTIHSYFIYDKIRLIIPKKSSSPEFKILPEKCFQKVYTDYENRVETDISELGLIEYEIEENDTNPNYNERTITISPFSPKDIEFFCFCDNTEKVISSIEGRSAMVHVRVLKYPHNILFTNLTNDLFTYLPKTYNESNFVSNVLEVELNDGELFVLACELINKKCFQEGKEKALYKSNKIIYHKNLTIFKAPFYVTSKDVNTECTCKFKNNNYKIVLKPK
Experiment: ELISA
Settings: both partners purified

| Binder | binding result |
| --- | --- |
| B1 | binds |
| B2 | binds |
| B3 | binds |
| B4 | binds |
| B5 | binds |
| B6 | binds |

Target: T3, Pfs48/45 D2-3 (Plasmodium falciparum 3D7, UniProt Q8I6T1)
T3 sequence (Q8I6T1 184-428): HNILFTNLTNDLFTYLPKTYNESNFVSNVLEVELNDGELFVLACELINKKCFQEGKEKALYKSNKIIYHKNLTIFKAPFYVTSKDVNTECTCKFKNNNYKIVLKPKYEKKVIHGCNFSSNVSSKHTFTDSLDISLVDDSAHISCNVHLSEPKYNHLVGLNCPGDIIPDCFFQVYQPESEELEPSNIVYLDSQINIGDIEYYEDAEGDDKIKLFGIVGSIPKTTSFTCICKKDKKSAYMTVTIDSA
Experiment: ELISA
Settings: both partners purified

| Binder | binding result |
| --- | --- |
| B1 | binds |
| B2 | binds |
| B3 | binds |
| B4 | binds |
| B5 | binds |
| B6 | binds |

Target: T1, recombinant full-length Pfs48/45
Experiment: ELISA
Settings: both partners purified
Remark: another data set of the same source

| Binder | binding result |
| --- | --- |
| B7 | binds |
| B8 | binds |
| B9 | binds |
| B10 | binds |
| B11 | binds |
| B12 | binds |
| B13 | binds |
| B14 | binds |
| B15 | binds |
| B16 | binds |
| B17 | binds |
| B18 | binds |
| B19 | binds |

Target: T2, Pfs48/45 D1-2
Experiment: ELISA
Settings: both partners purified
Remark: another data set of the same source

| Binder | binding result |
| --- | --- |
| B7 | binds |
| B8 | binds |
| B9 | binds |
| B10 | binds |
| B11 | binds |
| B12 | binds |
| B13 | binds |
| B14 | binds |
| B15 | binds |
| B16 | binds |
| B17 | binds |
| B18 | binds |
| B19 | binds |

Target: T3, Pfs48/45 D2-3
Experiment: ELISA
Settings: both partners purified
Remark: another data set of the same source

| Binder | binding result |
| --- | --- |
| B7 | binds |
| B8 | binds |
| B9 | binds |
| B10 | binds |
| B11 | binds |
| B12 | binds |
| B13 | binds |
| B14 | binds |
| B15 | binds |
| B16 | binds |
| B17 | binds |
| B18 | binds |
| B19 | binds |
